Test results published in the supplement of paper PMC7125110.
± gives the standard error. Fewer inactive variants are shown than the library holds.

B1: glmS ribozyme (parent)
chain: AUAAAAGCGCCAGAACUACAGAAAUGUAGUUGACGAGGAGGAGGUUUAUCGAAUUUUCGGCGGAUGCCUCCAAA

Experiments:
Settings in all cases: with glucosamine-6-phosphate
glucosamine-6-phosphate [1] = variants of: B1; test: self-cleavage kobs at 640 uM GlcN6P; higher = faster cleavage; RNA array
Outline: (§1)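 Barcoded ribozyme variants on sequenced MiSeq chips were transcribed in situ by E. coli RNA polymerase and followed at 37 °C through a hybridised Cy3 probe. Glucosamine-6-phosphate at 40 μM to 10 mM in HEPES/KCl/Mg(OAc)2 buffer was flowed in, and tiles were imaged over ~14 h. Signals were normalised to baseline and to non-cleaving reference variants, and per-tile medians were fit to one- or two-exponential decays to give kobs. Weighted Michaelis–Menten fits across concentrations gave kcat and KM.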

glucosamine-6-phosphate [2] = variants of: B1; test: self-cleavage kobs at 2500 uM GlcN6P; higher = faster cleavage; RNA array
Outline: as §1

glucosamine-6-phosphate [3] = variants of: B1; test: self-cleavage kobs at 10000 uM GlcN6P; higher = faster cleavage; RNA array
Outline: as §1

A14C A36G U49C
self-cleavage kobs at 640 uM GlcN6P (glucosamine-6-phosphate [1]): < 1e-05 s⁻¹ | self-cleavage kobs at 2500 uM GlcN6P (glucosamine-6-phosphate [2]): < 1e-05 s⁻¹

A33C G59A C67U
self-cleavage kobs at 640 uM GlcN6P (glucosamine-6-phosphate [1]): < 1e-05 s⁻¹

A14U G38A A53G
self-cleavage kobs at 640 uM GlcN6P (glucosamine-6-phosphate [1]): < 1e-05 s⁻¹

A6U U45A C50G U65G U69G
self-cleavage kobs at 640 uM GlcN6P (glucosamine-6-phosphate [1]): < 1e-05 s⁻¹

G38C G40U U46A
self-cleavage kobs at 640 uM GlcN6P (glucosamine-6-phosphate [1]): < 1e-05 s⁻¹

C11U G29U A52C
self-cleavage kobs at 640 uM GlcN6P (glucosamine-6-phosphate [1]): < 1e-05 s⁻¹

A6G U31G G37U
self-cleavage kobs at 640 uM GlcN6P (glucosamine-6-phosphate [1]): < 1e-05 s⁻¹ | self-cleavage kobs at 2500 uM GlcN6P (glucosamine-6-phosphate [2]): < 1e-05 s⁻¹

G9U G35C A42U U45A C70A
self-cleavage kobs at 640 uM GlcN6P (glucosamine-6-phosphate [1]): < 1e-05 s⁻¹

G29U G32U G44C U65C
self-cleavage kobs at 640 uM GlcN6P (glucosamine-6-phosphate [1]): < 1e-05 s⁻¹

C34G C61G G62C
self-cleavage kobs at 640 uM GlcN6P (glucosamine-6-phosphate [1]): < 1e-05 s⁻¹

U30G G40A U56G
self-cleavage kobs at 640 uM GlcN6P (glucosamine-6-phosphate [1]): 6.26e-05 ± 2e-05 s⁻¹ | self-cleavage kobs at 2500 uM GlcN6P (glucosamine-6-phosphate [2]): 0.00032 ± 7.3e-05 s⁻¹

A6U G44U U49G
self-cleavage kobs at 640 uM GlcN6P (glucosamine-6-phosphate [1]): < 1e-05 s⁻¹

C8G C16G G38A
self-cleavage kobs at 640 uM GlcN6P (glucosamine-6-phosphate [1]): < 1e-05 s⁻¹

G37A C50U G51U
self-cleavage kobs at 640 uM GlcN6P (glucosamine-6-phosphate [1]): < 1e-05 s⁻¹ | self-cleavage kobs at 2500 uM GlcN6P (glucosamine-6-phosphate [2]): < 1e-05 s⁻¹

U49G C50G G63C U69C
self-cleavage kobs at 640 uM GlcN6P (glucosamine-6-phosphate [1]): 0.00018 ± 4.2e-05 s⁻¹

U31A U56G C58G
self-cleavage kobs at 640 uM GlcN6P (glucosamine-6-phosphate [1]): 9.04e-05 ± 1.6e-05 s⁻¹ | self-cleavage kobs at 2500 uM GlcN6P (glucosamine-6-phosphate [2]): 0.000252 ± 5e-05 s⁻¹

U30C G38U A42U
self-cleavage kobs at 640 uM GlcN6P (glucosamine-6-phosphate [1]): < 1e-05 s⁻¹ | self-cleavage kobs at 10000 uM GlcN6P (glucosamine-6-phosphate [3]): < 1e-05 s⁻¹

A36U G41U U55A
self-cleavage kobs at 640 uM GlcN6P (glucosamine-6-phosphate [1]): < 1e-05 s⁻¹ | self-cleavage kobs at 2500 uM GlcN6P (glucosamine-6-phosphate [2]): < 1e-05 s⁻¹

A6U G37A U54A
self-cleavage kobs at 640 uM GlcN6P (glucosamine-6-phosphate [1]): < 1e-05 s⁻¹

G13U G37U G40A U69G
self-cleavage kobs at 640 uM GlcN6P (glucosamine-6-phosphate [1]): < 1e-05 s⁻¹ | self-cleavage kobs at 2500 uM GlcN6P (glucosamine-6-phosphate [2]): < 1e-05 s⁻¹ | self-cleavage kobs at 10000 uM GlcN6P (glucosamine-6-phosphate [3]): < 1e-05 s⁻¹

A6G G63C C67A
self-cleavage kobs at 640 uM GlcN6P (glucosamine-6-phosphate [1]): < 1e-05 s⁻¹

G41U C50A U65A
self-cleavage kobs at 640 uM GlcN6P (glucosamine-6-phosphate [1]): < 1e-05 s⁻¹

C10A A53G C70G
self-cleavage kobs at 640 uM GlcN6P (glucosamine-6-phosphate [1]): 0.000157 ± 4.8e-05 s⁻¹ | self-cleavage kobs at 2500 uM GlcN6P (glucosamine-6-phosphate [2]): 0.000151 ± 4.6e-05 s⁻¹

U30G U31A U65A
self-cleavage kobs at 640 uM GlcN6P (glucosamine-6-phosphate [1]): 0.000791 ± 0.00013 s⁻¹ | self-cleavage kobs at 2500 uM GlcN6P (glucosamine-6-phosphate [2]): 0.000896 ± 0.00022 s⁻¹

G38U G43U U65C C68G C71G
self-cleavage kobs at 640 uM GlcN6P (glucosamine-6-phosphate [1]): < 1e-05 s⁻¹

G13A U54C C70U
self-cleavage kobs at 640 uM GlcN6P (glucosamine-6-phosphate [1]): 9.94e-05 ± 2.2e-05 s⁻¹ | self-cleavage kobs at 2500 uM GlcN6P (glucosamine-6-phosphate [2]): 0.000291 ± 9.6e-05 s⁻¹

C10U U47G G51U U57C C58G A64U
self-cleavage kobs at 640 uM GlcN6P (glucosamine-6-phosphate [1]): < 1e-05 s⁻¹

A6C A53U C58U
self-cleavage kobs at 640 uM GlcN6P (glucosamine-6-phosphate [1]): < 1e-05 s⁻¹ | self-cleavage kobs at 2500 uM GlcN6P (glucosamine-6-phosphate [2]): < 1e-05 s⁻¹

G44C C58G C61G
self-cleavage kobs at 640 uM GlcN6P (glucosamine-6-phosphate [1]): < 1e-05 s⁻¹

G13U G37C U56C C67A C71U
self-cleavage kobs at 640 uM GlcN6P (glucosamine-6-phosphate [1]): < 1e-05 s⁻¹

G32A G51U A52U G60C G62C
self-cleavage kobs at 640 uM GlcN6P (glucosamine-6-phosphate [1]): < 1e-05 s⁻¹

A33G G38U U49C C71U
self-cleavage kobs at 640 uM GlcN6P (glucosamine-6-phosphate [1]): < 1e-05 s⁻¹ | self-cleavage kobs at 2500 uM GlcN6P (glucosamine-6-phosphate [2]): < 1e-05 s⁻¹

G40C U56C A64C C70A
self-cleavage kobs at 640 uM GlcN6P (glucosamine-6-phosphate [1]): < 1e-05 s⁻¹

A12G A39U A42C
self-cleavage kobs at 640 uM GlcN6P (glucosamine-6-phosphate [1]): 8.45e-05 ± 2.4e-05 s⁻¹ | self-cleavage kobs at 2500 uM GlcN6P (glucosamine-6-phosphate [2]): 0.000119 ± 2.7e-05 s⁻¹

A14C C61U C68G
self-cleavage kobs at 640 uM GlcN6P (glucosamine-6-phosphate [1]): 0.0001 ± 3.3e-05 s⁻¹

A12G G29A A36G U49C U57G C70A
self-cleavage kobs at 640 uM GlcN6P (glucosamine-6-phosphate [1]): < 1e-05 s⁻¹

U31C G38U G41U G63C
self-cleavage kobs at 640 uM GlcN6P (glucosamine-6-phosphate [1]): < 1e-05 s⁻¹
